Reference: CN114516919A (SUZHOU BAIDAI MEDICAL SCIENCE AND TECH LIMITED COMPANY, dated 2022)

Target: T1, 肾组织切片中的PLA2R1蛋白 (human, UniProt Q13018 21-1463)
T1 construct: whole, on cells
Assay: immunohistochemistry on FFPE kidney tissue sections, DAB

T1 sequence (Q13018 21-1463): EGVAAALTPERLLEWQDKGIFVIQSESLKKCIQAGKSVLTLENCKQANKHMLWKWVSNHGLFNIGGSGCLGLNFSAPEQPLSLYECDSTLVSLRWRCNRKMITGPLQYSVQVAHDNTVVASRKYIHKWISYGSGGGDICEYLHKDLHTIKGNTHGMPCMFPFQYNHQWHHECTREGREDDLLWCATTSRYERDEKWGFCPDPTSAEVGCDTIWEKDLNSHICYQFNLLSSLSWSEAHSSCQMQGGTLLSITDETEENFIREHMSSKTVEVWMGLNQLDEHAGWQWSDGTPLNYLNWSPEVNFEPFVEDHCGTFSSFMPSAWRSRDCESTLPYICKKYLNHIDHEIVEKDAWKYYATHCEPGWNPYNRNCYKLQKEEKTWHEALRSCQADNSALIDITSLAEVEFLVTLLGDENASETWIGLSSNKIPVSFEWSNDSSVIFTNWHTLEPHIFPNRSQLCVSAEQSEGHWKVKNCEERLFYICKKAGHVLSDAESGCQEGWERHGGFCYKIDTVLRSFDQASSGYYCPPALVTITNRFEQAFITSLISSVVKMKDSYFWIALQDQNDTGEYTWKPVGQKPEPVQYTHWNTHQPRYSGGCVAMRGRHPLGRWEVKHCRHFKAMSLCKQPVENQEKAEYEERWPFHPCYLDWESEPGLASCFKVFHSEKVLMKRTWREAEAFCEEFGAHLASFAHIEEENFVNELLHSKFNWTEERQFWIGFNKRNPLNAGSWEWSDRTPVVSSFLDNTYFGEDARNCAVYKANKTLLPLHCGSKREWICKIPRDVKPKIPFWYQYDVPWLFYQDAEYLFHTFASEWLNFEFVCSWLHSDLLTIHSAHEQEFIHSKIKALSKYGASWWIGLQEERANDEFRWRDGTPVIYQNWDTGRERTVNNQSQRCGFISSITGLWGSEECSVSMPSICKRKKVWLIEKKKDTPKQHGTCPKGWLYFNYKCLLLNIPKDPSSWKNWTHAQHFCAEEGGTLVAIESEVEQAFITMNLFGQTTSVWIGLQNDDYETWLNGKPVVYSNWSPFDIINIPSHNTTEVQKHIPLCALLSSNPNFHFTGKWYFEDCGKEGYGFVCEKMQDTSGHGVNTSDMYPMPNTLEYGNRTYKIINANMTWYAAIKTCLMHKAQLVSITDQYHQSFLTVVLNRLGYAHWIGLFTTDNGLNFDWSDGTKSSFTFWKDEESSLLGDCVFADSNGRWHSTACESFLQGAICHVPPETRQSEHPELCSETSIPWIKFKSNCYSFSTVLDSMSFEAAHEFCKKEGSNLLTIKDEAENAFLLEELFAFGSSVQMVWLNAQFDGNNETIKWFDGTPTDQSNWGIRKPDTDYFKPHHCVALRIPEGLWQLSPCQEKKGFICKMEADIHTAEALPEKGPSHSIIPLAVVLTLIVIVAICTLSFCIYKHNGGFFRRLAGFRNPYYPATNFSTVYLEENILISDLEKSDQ

- binding result: binds
B1: 54D11抗PLA2R重组兔单克隆抗体 (antibody, V domains shown)
VH: QSVEESGGRLVTPGTPLTLTCTVSGIDLSSHGMGWVRQAPGKGLEWIGYINTGGSAYYASWAKGRFTISRTSTTVDLKMTSLTTEDTATYFCARGDPDYTSGFPIWGPGTLVTVSS
VL: AFEMTQTPASVEVAVGGTVTIKCQASESISSWLAWYQQKPGQPPKLLIYRASTLASGVPSRFSGSGSGTQFTLTISGVECADAATYYCQQGYSSHNIDNIFGGGTEVVVR
notes: also called 54D11抗PLA2R单克隆抗体; 54D11克隆的PLA2R重组兔单克隆抗体
